Laboratory results reported in FireProtDB (doi:10.1006/jmbi.1998.1906).
Where “and” joins values, the source holds several entries; their conditions need not be identical. Identical values can stand only once.

B1: Lysozyme C, P61626 (parent)
chain: MKALIVLGLVLLSVTVQGKVFERCELARTLKRLGMDGYRGISLANWMCLAKWESGYNTRATNYNAGDRSTDYGIFQINSRYWCNDGKTPGAVNACHLSCSALLQDNIADAVACAKRVVRDPQGIRAWVAWRNRCQNRDVRQYVQGCGV

Variants of: B1
Conditions: Homo sapiens; pH 2.68; Thermal; DSC; glycine 0.05 M; reversible: yes; structure 1LZ1; whole UniProt chain shown

Variant | Tm [°C] | unfolding enthalpy (calorimetric) [kcal/mol] | unfolding enthalpy (van 't Hoff) [kcal/mol]
I77V | 44.3 | 62.9 | 67

Same assay, conditions: Homo sapiens; pH 2.7; 49.2 °C; Thermal; DSC; glycine 0.05 M; reversible: yes; structure 1LZ1; whole UniProt chain shown

Variant | ddG of mutation (higher = less stable) [kcal/mol] | heat capacity change of unfolding [kcal/mol/K]
I77V | 0.93 | 1.67
I41V | 0.41 | 1.82
V92A | 0.43 | 1.53
V20A | 1.51 | 1.44
I74V | 1.34 | 1.29
I124V | 0.98 | 1.72
V128A | -0.07 | 1.51
V118A | 0.57 | 1.84
V139A | 1.75 | 1.37
V143A | 1.6 | 1.56

Same assay, conditions: Homo sapiens; pH 2.7; Thermal; DSC; glycine 0.05 M; reversible: yes; structure 1LZ1; whole UniProt chain shown

Variant | Tm | change of melting temperature, mutant - wild type (higher = more stable) | heat capacity change of unfolding [kcal/mol/K] | unfolding enthalpy (calorimetric) | unfolding enthalpy (van 't Hoff) [kcal/mol]
I77V | 44.8 °C | -4.4 °C | 1.67 | 71.3 kcal/mol | –
I41V | 47.6 °C | -1.6 °C | 1.82 | 80.9 kcal/mol | –
V92A | 47.3 °C | -1.9 °C | 1.53 | 73.7 kcal/mol | –
V20A | 41.3 °C | -7.9 °C | 1.44 | 65.5 kcal/mol | –
I74V | 42.9 °C | -6.3 °C | 1.29 | 71.8 kcal/mol | –
I124V | 44.5 °C and 43.6 °C | -4.7 °C and -5.6 °C | 1.72 | 70.3 kcal/mol and 59.8 kcal/mol | 66.7
V128A | 49.5 °C | 0.3 °C | 1.51 | 80.9 kcal/mol | –
V118A | 46.6 °C | -2.6 °C | 1.84 | 72.2 kcal/mol | –
V117A | 44.8 °C | -4.4 °C | 1.27 | 67 kcal/mol | –
V139A | 39.9 °C | -9.3 °C | 1.37 | 65.3 kcal/mol | –
V143A | 42.2 °C | -7 °C | 1.56 | 78 kcal/mol | –

Same assay, conditions: Homo sapiens; pH 2.81; Thermal; DSC; glycine 0.05 M; reversible: yes; structure 1LZ1; whole UniProt chain shown

Variant | Tm [°C] | change of melting temperature, mutant - wild type (higher = more stable) [°C] | unfolding enthalpy (calorimetric) [kcal/mol] | unfolding enthalpy (van 't Hoff) [kcal/mol]
I77V | 46.9 | -5.1 | 67.5 | 71.1

Same assay, conditions: Homo sapiens; pH 3; Thermal; DSC; glycine 0.05 M; reversible: yes; structure 1LZ1; whole UniProt chain shown

Variant | Tm [°C] | unfolding enthalpy (calorimetric) [kcal/mol] | unfolding enthalpy (van 't Hoff) [kcal/mol]
I77V | 50.3 | 74.2 | 76.1
I74V | 48.2 | 69.4 | 73
I124V | 49.5 | 70.6 | 75.6
V128A | 55 | 89 | 93.1
V139A | 47 | 61.5 | 67.5

Same assay, conditions: Homo sapiens; pH 3.1; Thermal; DSC; glycine 0.05 M; reversible: yes; structure 1LZ1; whole UniProt chain shown

Variant | Tm [°C] | unfolding enthalpy (calorimetric) [kcal/mol] | unfolding enthalpy (van 't Hoff) [kcal/mol]
I77V | 52 | 75.4 | 78.7
V20A | 48.3 | 65.1 | 70.6
I74V | 50.5 | 74.4 | 78.2
I124V | 51.3 | 73.7 | 78
V117A | 52.6 | 70.6 | 73.7

Same assay, conditions: Homo sapiens; pH 2.66; Thermal; DSC; glycine 0.05 M; reversible: yes; structure 1LZ1; whole UniProt chain shown

Variant | Tm [°C] | unfolding enthalpy (calorimetric) [kcal/mol] | unfolding enthalpy (van 't Hoff) [kcal/mol]
I41V | 46.7 | 76.3 | 80.4

Same assay, conditions: Homo sapiens; pH 2.78; Thermal; DSC; glycine 0.05 M; reversible: yes; structure 1LZ1; whole UniProt chain shown

Variant | Tm [°C] | unfolding enthalpy (calorimetric) [kcal/mol] | unfolding enthalpy (van 't Hoff) [kcal/mol]
I41V | 49.6 | 83.5 | 85.9

Same assay, conditions: Homo sapiens; pH 2.96; Thermal; DSC; glycine 0.05 M; reversible: yes; structure 1LZ1; whole UniProt chain shown

Variant | Tm [°C] | unfolding enthalpy (calorimetric) [kcal/mol] | unfolding enthalpy (van 't Hoff) [kcal/mol]
I41V | 52.3 | 85.4 | 89.2

Same assay, conditions: Homo sapiens; pH 3.09; Thermal; DSC; glycine 0.05 M; reversible: yes; structure 1LZ1; whole UniProt chain shown

Variant | Tm [°C] | unfolding enthalpy (calorimetric) [kcal/mol] | unfolding enthalpy (van 't Hoff) [kcal/mol]
I41V | 55 | 91.1 | 95

Same assay, conditions: Homo sapiens; pH 2.51; Thermal; DSC; glycine 0.05 M; reversible: yes; structure 1LZ1; whole UniProt chain shown

Variant | Tm [°C] | unfolding enthalpy (calorimetric) [kcal/mol] | unfolding enthalpy (van 't Hoff) [kcal/mol]
V92A | 43.9 | 65.6 | 69.9
V118A | 43.5 | 61.5 | 70.1

Same assay, conditions: Homo sapiens; pH 2.69; Thermal; DSC; glycine 0.05 M; reversible: yes; structure 1LZ1; whole UniProt chain shown

Variant | Tm [°C] | unfolding enthalpy (calorimetric) [kcal/mol] | unfolding enthalpy (van 't Hoff) [kcal/mol]
V92A | 47.5 | 71.5 | 75.6

Same assay, conditions: Homo sapiens; pH 2.85; Thermal; DSC; glycine 0.05 M; reversible: yes; structure 1LZ1; whole UniProt chain shown

Variant | Tm [°C] | unfolding enthalpy (calorimetric) [kcal/mol] | unfolding enthalpy (van 't Hoff) [kcal/mol]
V92A | 50.1 | 74.4 | 80.9
V117A | 48.2 | 67.2 | 70.6

Same assay, conditions: Homo sapiens; pH 3.03; Thermal; DSC; glycine 0.05 M; reversible: yes; structure 1LZ1; whole UniProt chain shown

Variant | Tm [°C] | unfolding enthalpy (calorimetric) [kcal/mol] | unfolding enthalpy (van 't Hoff) [kcal/mol]
V92A | 52.8 | 79.2 | 86.4

Same assay, conditions: Homo sapiens; pH 3.16; Thermal; DSC; glycine 0.05 M; reversible: yes; structure 1LZ1; whole UniProt chain shown

Variant | Tm [°C] | unfolding enthalpy (calorimetric) [kcal/mol] | unfolding enthalpy (van 't Hoff) [kcal/mol]
V92A | 54.8 | 82.5 | 86.4

Same assay, conditions: Homo sapiens; pH 2.71; Thermal; DSC; glycine 0.05 M; reversible: yes; structure 1LZ1; whole UniProt chain shown

Variant | Tm [°C] | unfolding enthalpy (calorimetric) [kcal/mol] | unfolding enthalpy (van 't Hoff) [kcal/mol]
V20A | 41.4 | 54.5 | 60.3

Same assay, conditions: Homo sapiens; pH 3.02; Thermal; DSC; glycine 0.05 M; reversible: yes; structure 1LZ1; whole UniProt chain shown

Variant | Tm [°C] | unfolding enthalpy (calorimetric) [kcal/mol] | unfolding enthalpy (van 't Hoff) [kcal/mol]
V20A | 47.3 | 62 | 67.5
V118A | 52 | 77.8 | 81.6
V117A | 51 | 68.9 | 72.2
V143A | 47.9 | 76.3 | 78

Same assay, conditions: Homo sapiens; pH 2.8; Thermal; DSC; glycine 0.05 M; reversible: yes; structure 1LZ1; whole UniProt chain shown

Variant | Tm [°C] | unfolding enthalpy (calorimetric) [kcal/mol] | unfolding enthalpy (van 't Hoff) [kcal/mol]
I74V | 45.3 | 66.7 | 71.1

Same assay, conditions: Homo sapiens; pH 2.55; Thermal; DSC; glycine 0.05 M; reversible: yes; structure 1LZ1; whole UniProt chain shown

Variant | Tm [°C] | unfolding enthalpy (calorimetric) [kcal/mol] | unfolding enthalpy (van 't Hoff) [kcal/mol]
V128A | 46.8 | 76.8 | 78

Same assay, conditions: Homo sapiens; pH 2.87; Thermal; DSC; glycine 0.05 M; reversible: yes; structure 1LZ1; whole UniProt chain shown

Variant | Tm [°C] | unfolding enthalpy (calorimetric) [kcal/mol] | unfolding enthalpy (van 't Hoff) [kcal/mol]
V128A | 52.5 | 85.9 | 87.6
V143A | 45.9 | 72.2 | 76.3

Same assay, conditions: Homo sapiens; pH 3.13; Thermal; DSC; glycine 0.05 M; reversible: yes; structure 1LZ1; whole UniProt chain shown

Variant | Tm [°C] | unfolding enthalpy (calorimetric) [kcal/mol] | unfolding enthalpy (van 't Hoff) [kcal/mol]
V128A | 57.2 | 93.3 | 93.3

Same assay, conditions: Homo sapiens; pH 2.72; Thermal; DSC; glycine 0.05 M; reversible: yes; structure 1LZ1; whole UniProt chain shown

Variant | Tm [°C] | unfolding enthalpy (calorimetric) [kcal/mol] | unfolding enthalpy (van 't Hoff) [kcal/mol]
V118A | 46.8 | 68.9 | 73.4
V117A | 45.3 | 62.2 | 65.8
V139A | 40.3 | 53.6 | 56.9
V143A | 42.8 | 67.2 | 70.6

Same assay, conditions: Homo sapiens; pH 2.9; Thermal; DSC; glycine 0.05 M; reversible: yes; structure 1LZ1; whole UniProt chain shown

Variant | Tm [°C] | unfolding enthalpy (calorimetric) [kcal/mol] | unfolding enthalpy (van 't Hoff) [kcal/mol]
V118A | 49.9 | 72.5 | 79.2

Same assay, conditions: Homo sapiens; pH 3.15; Thermal; DSC; glycine 0.05 M; reversible: yes; structure 1LZ1; whole UniProt chain shown

Variant | Tm [°C] | unfolding enthalpy (calorimetric) [kcal/mol] | unfolding enthalpy (van 't Hoff) [kcal/mol]
V118A | 54.4 | 81.8 | 84.7

Same assay, conditions: Homo sapiens; pH 2.54; Thermal; DSC; glycine 0.05 M; reversible: yes; structure 1LZ1; whole UniProt chain shown

Variant | Tm [°C] | unfolding enthalpy (calorimetric) [kcal/mol] | unfolding enthalpy (van 't Hoff) [kcal/mol]
V117A | 41.4 | 56 | 59.6

Same assay, conditions: Homo sapiens; pH 2.86; Thermal; DSC; glycine 0.05 M; reversible: yes; structure 1LZ1; whole UniProt chain shown

Variant | Tm [°C] | unfolding enthalpy (calorimetric) [kcal/mol] | unfolding enthalpy (van 't Hoff) [kcal/mol]
V139A | 43.6 | 57.9 | 62.7

Same assay, conditions: Homo sapiens; pH 3.14; Thermal; DSC; glycine 0.05 M; reversible: yes; structure 1LZ1; whole UniProt chain shown

Variant | Tm [°C] | change of melting temperature, mutant - wild type (higher = more stable) [°C] | unfolding enthalpy (calorimetric) [kcal/mol] | unfolding enthalpy (van 't Hoff) [kcal/mol]
V139A | 50.1 | -7.7 | 67.2 | 72.5

Same assay, conditions: Homo sapiens; pH 3.17; Thermal; DSC; glycine 0.05 M; reversible: yes; structure 1LZ1; whole UniProt chain shown

Variant | Tm [°C] | unfolding enthalpy (calorimetric) [kcal/mol] | unfolding enthalpy (van 't Hoff) [kcal/mol]
V143A | 50.8 | 81.1 | 82.8
